Reference: patent US8697651B2, “Amyloid β fibrillogenesis-inhibiting peptide” (Kagoshima University, priority 2006, dated 2014)
No end group written: not given here. *: point of attachment. Biotin = O=C1N[C@H]2[C@H](CS[C@H]2CCCCC(=O)*)N1

Tests used:
B6 scFv = test: ELISA: binding of B6 scFv to plate-coated synthesized TAT fusion peptide; design: species or system human; conditions: peptide coated 200 ng/well; B6 scFv at varying concentrations (FIG. 7)
Source text: The B6-L1, B7-C15, and B7-S15 sequences having the TAT sequence fused at the amino terminus are referred to as TAT-B6-L1, TAT-B7-C15, and TAT-B7-S15, respectively. The B6-L1 sequence having the TAT sequence fused at the carboxyl terminus is referred to as B6-L1-TAT. The TAT sequence is a peptide sequence having the function of passing through the blood-brain barrier (P. Jarver and Ulo Langel, The use of cell-penetrating peptides as a tool for gene regulation, DDT, 9: 395-402, 2004). These peptides were biotinylated at their amino termini. Binding of the peptides was quantified using avidin labeled with an enzyme.
(5) The fusion peptide of TAT and B6-L1 was recognized by B6 scFv (FIG. 7). An ELISA plate was coated with the synthesized peptide TAT-B6-L1 or B6-L1-TAT under conditions of 200 ng/well. After addition of B6 scFv at varying concentrations, its binding activity was studied. A control peptide used was an unrelated peptide (GSGGGSCGYWRSEWGLCG (SEQ ID NO: 34)). […] (6) Activity of Inhibiting Aβ1-42 Fibrillogenesis by Fusion Peptide of TAT and B6-L1, B7-C15, or B7-S15

Aβ1-42 peptide = biological target: T1, Aβ1-42 peptide (Homo sapiens, UniProt P05067); test: Experiment of inhibition of amyloid β (Aβ1-42) fibrillogenesis, thioflavine T fluorescence; assay type: biochemical; conditions: peptide 1.65, 16.5, 33 nM added to 40 μM Aβ1-42 in 20 mM phosphate buffer pH 7.0; 0, 6, 24 hours; thioflavine T fluorescence 482 nm (FIG. 8)
T1 construct: the Aβ1-42 peptide diluted to 40 μM using 20 mM phosphate buffer
T1 sequence (P05067 672-713 limits assumed): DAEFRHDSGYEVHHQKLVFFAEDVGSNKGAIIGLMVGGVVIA
Experimental: Examples of a method for examining whether or not the obtained peptide has an activity of inhibiting amyloid β fibrillogenesis include the thioflavine T (ThT) method (H. Levine, III, Protein Science […]: 404-410 (1993)).
The synthesized peptide (TAT-B6-L1, B6-L1-TAT, TAT-B7-C15, or TAT-B7-S15) was added at varying concentrations (1.65 nM, 16.5 nM, and 33 nM) to the Aβ1-42 peptide diluted to 40 μM using 20 mM phosphate buffer, pH 7.0. At 0, 6, and 24 hours later, 10 μl of a sample was collected. After addition of 90 μl of 11 μM thioflavine T (Sigma)/phosphate buffer, fluorescence intensity at 482 nm generated by excitation light at 450 nm was measured using a multilabel plate counter Wallac 1420 ARVO sx (Perkin-Elmer; Wellesley, Mass.).
Results of measuring an activity of inhibiting Aβ1-42 fibrillogenesis by fusion peptides of TAT and B6-L1, B7-C15, or B7-S15 are shown in FIG. 8. The experiment of inhibition of fibrillogenesis was conducted according to the procedures described in the experiment of inhibition of fibrillogenesis above.

[1] = biological target: T2, Aβ oligomer or Aβ fibers (Aβ1-42) (Homo sapiens, UniProt P05067); test: Experiment of precipitation of Aβ conformers (Aβ oligomer and Aβ fibers) by biotinylated peptide with streptavidin-magnet beads, Western blot; assay type: binding; conditions: Aβ1-42 40 μM, 1.5 hours after dissolution, peptide 1:1, supernatant vs pellet (FIG. 9)
T2 construct: the Aβ1-42 peptide diluted to 40 μM using 20 mM phosphate buffer
T2 sequence (P05067 672-713 limits assumed): as above
Experimental: Aβ1-42 was dissolved at a concentration of 40 μM in 20 mM phosphate buffer, pH 7.0. At 1.5 hours later, the solution was reacted at 37° C. for 1 hour by the addition of the TAT-B6-L1 or TAT-B7-C15 peptide adjusted to 40 μM at a ratio of 1:1 by liquid volume (final concentration: Aβ [20 μM]/synthesized peptide [20 μM]). After reaction, an aliquot thereof was sampled as a sample before immunoprecipitation (“Before precipitation”), and the remaining sample was reacted with M-280 streptavidin-magnet beads (Dynal Biotech, Oslo, Norway) adjusted to 20 μg/μl on ice for 1 hour at a ratio of 1:1 by liquid volume (final concentration: Aβ [10 μM]/synthesized peptide [10 μM]/beads [10 μg/μl]). After reaction, the beads were precipitated using a magnet to obtain “Supernatant”. To the precipitated beads, PBS was added in a liquid volume equal to the collected supernatant to obtain “Pellet”. Each obtained sample was electrophoresed and subjected to Western blot analysis using anti-Aβ antibodies.
Aβ1-42 was dissolved at a concentration of 40 μM in 20 mM phosphate buffer, pH 7.0. At 1.5 hours later, the biotinylated TAT-B6-L1 or TAT-B7-C15 peptide was added thereto, and the conjugates were precipitated using streptavidin-magnet beads. Bands derived from Aβ oligomer, Aβ fibers, etc., could be confirmed before precipitation. Aβ oligomer or Aβ fibers were not confirmed in the supernatant from precipitation using the TAT-B6-L1 or TAT-B7-C15 peptide but could be confirmed in the pellet.

Sequence of B6 scFv (as listed by the source): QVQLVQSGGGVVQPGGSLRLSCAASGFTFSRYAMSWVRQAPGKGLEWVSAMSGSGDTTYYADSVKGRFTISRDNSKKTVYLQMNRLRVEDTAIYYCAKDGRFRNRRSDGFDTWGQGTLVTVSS
Sequence of B6 scFv (as listed by the source): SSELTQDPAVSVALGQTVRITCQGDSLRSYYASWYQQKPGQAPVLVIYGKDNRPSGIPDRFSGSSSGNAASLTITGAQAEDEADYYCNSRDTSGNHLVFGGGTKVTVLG

| Substance | binding of B6 scFv to the coated peptide (B6 scFv) | activity of inhibiting Aβ1-42 fibrillogenesis (Aβ1-42 peptide) | binding/precipitation of Aβ oligomer or Aβ fibers by the peptide [1] |
| --- | --- | --- | --- |
| B6-L1-TAT: B6-L1 sequence having the TAT sequence fused at the carboxyl terminus; SEQ ID NO: 25 (Biotin-GMLDIFAPIRHVYGRKKRRQRRR) | Binding reaction dependent on the amount of B6 scFv was confirmed | demonstrated to have the activity of inhibiting fibrillogenesis | – |
| GSGGGSCGYWRSEWGLCG [control peptide, reference compound] | – | exhibited no inhibiting activity | no confirmed precipitation reaction |
| TAT-B6-L1: B6-L1 sequence having the TAT sequence fused at the amino terminus; SEQ ID NO: 24 (Biotin-YGRKKRRQRRRGMLDIFAPIRHV) | Binding reaction dependent on the amount of B6 scFv was confirmed | demonstrated to have the activity of inhibiting fibrillogenesis | Aβ oligomer or Aβ fibers formed on 1.5 hours after dissolution of Aβ1-42 bind to the TAT-B6-L1 or TAT-B7-C15 peptide |
| TAT-B7-C15: B7-C15 sequence (glycine added to carboxyl terminus) having the TAT sequence fused at the amino terminus; SEQ ID NO: 26 (Biotin-YGRKKRRQRRRCYGTKPWMCG; cysteine pairing not given here) | – | demonstrated to have the activity of inhibiting fibrillogenesis | Aβ oligomer or Aβ fibers formed on 1.5 hours after dissolution of Aβ1-42 bind to the TAT-B6-L1 or TAT-B7-C15 peptide |
| TAT-B7-S15: B7-S15 sequence having the TAT sequence fused at the amino terminus; SEQ ID NO: 27 (Biotin-YGRKKRRQRRRSYGTKPWMSG) | – | demonstrated to have the activity of inhibiting fibrillogenesis | – |
